# No end group written: not given here. nYFP = N-terminal end of yellow fluorescent protein
# T1: Arabidopsis Nuclear Factor YB7 (AtNF-YB7), recombinant, tagged, for pull-down (Arabidopsis, UniProt Q9SIT9 1-215)
# T1 construct: Contains a histone-fold-like domain; also called AtNF-YB7-GST fusion protein
# T1 sequence (looked up): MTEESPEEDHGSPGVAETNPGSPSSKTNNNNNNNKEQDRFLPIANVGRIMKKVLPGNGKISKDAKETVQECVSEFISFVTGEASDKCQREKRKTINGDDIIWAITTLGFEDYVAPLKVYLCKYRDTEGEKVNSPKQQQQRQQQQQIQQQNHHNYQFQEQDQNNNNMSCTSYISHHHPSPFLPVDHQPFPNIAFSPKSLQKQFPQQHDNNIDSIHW
# T2: AtNF-YC4-cYFP (Arabidopsis thaliana, UniProt Q9FMV5 1-250)
# T2 construct: BiFC construct expressed in tobacco leaves; AtNF-YC4 is fused in-frame to the N-terminus of cYFP; not shown: cYFP (C-terminal end of yellow fluorescent protein)
# T2 sequence (looked up): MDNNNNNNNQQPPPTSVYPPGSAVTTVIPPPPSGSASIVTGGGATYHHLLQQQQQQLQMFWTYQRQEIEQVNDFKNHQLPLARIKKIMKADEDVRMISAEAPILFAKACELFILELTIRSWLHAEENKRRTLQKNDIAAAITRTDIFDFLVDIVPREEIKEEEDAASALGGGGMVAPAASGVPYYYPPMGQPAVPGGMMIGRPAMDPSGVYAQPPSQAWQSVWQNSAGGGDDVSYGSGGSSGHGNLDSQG
# B1: GST-QQS fusion protein (other)
# chain: MKTNREQEIYVERSFKPNNSTIQNLMDIERFILPHTSTSGVARLKMRVISWVGLQFYNY
# modifications: also: fused to GST tag, position and linker not given here
# notes: also called GST-tagged QQS; not shown: glutathione-S-transferase (GST) tag
# B2: QQS-nYFP (other)
# chain: MKTNREQEIYVERSFKPNNSTIQNLMDIERFILPHTSTSGVARLKMRVISWVGLQFYNY-nYFP
# modifications: also: nYFP limits and sequence not given here
# notes: BiFC construct expressed in tobacco leaves; QQS is fused in-frame to the N-terminus of nYFP; not shown: nYFP (N-terminal end of yellow fluorescent protein)
# Columns and labels:
# [1] = molecular target: T1, Arabidopsis Nuclear Factor YB7 …; experiment: GST pull-down
# AtNF-YC4-cYFP = molecular target: T2, AtNF-YC4-cYFP; experiment: in vivo co-expression in tobacco leaf
# Description: QQS and AtNF-YC4 were fused in-frame to the N-terminus of nYFP (N-terminal end of yellow fluorescent protein (YFP)) and cYFP (C-terminal end of YFP), respectively. Agrobacterium strain GV3101 transformed with QQS-nYFP and AtNF-YC4-cYFP constructs were co-infiltrated into Nicotiana tabacum. The reconstituted YFP signal was observed 48 h after infiltration under a Zeiss Axioplan II fluorescence microscope.
Binder,binding result [1],binding result (AtNF-YC4-cYFP)
B1,no binding,–
B2,–,binds

# Reference: patent US20260139263A1 (IOWA STATE UNIVERSITY RESEARCH FOUNDATION, published 2026)
